Measurements published in paper PMC8989322 (2022).

B1: mAb234 (antibody, V domains shown)
VH: EVQLVESGGGLVKPGGSLRLSCAASGFNFSTHIMNWVRQAPGKGLEWVSSISSSGTYIYYADSMKGRFTISRDNPKNSLYLQMNSLRAEDTAVYYCARARGFIQFHYYMDVWGKGTTVAVSS
VL: SYVLTQPPSVSVAPGKTARITCGGNNIGSKSVHWHQQRPGQAPVLVVYDDKIRPSGIPERFSGSNSGNTATLIISRVEAGDEADYYCQVWHSSSDPVVFGGGTKLTVL
B2: mAb236 (antibody, V domains shown)
VH: EVQLVESGGGLVQPGGSLRLSCVASGFNFTTYSMNWVRQAPGKGLEWVSYISSHSNLIYYATSVKGRFTISRDNAKNSLYLQMNSLRAEDTALYYCARGGSLHPSAGADWIDPWGQGTLVTVSS
VL: SYELTQAPSVSVSPGQTATITCSGDKLGDKFTSWYQQKPGQSPVLVIYQDSKRPSGIPERFSASNSGNTATLTISGTRAMDEADYYCQAWDSNTYVFGTGTRVAVL
B3: mAb1488 (antibody, V domains shown)
VH: EVHLVESGGGLVKPGGSLRLSCAASGFTFSSYTMNWVRQAPGKGLEWVSSISSSSTYIYYADSVRGRFTISRDNAKNSLYLQMNSLRAEDSAVYYCARRAGGFDAYYFDYWGQGTLVTVSS
VL: not shown
B4: mAb352 (antibody, V domains shown)
VH: EVQLVESGGGLVKPGGSLRLSCAASGFSFSEYRMNWVRQAPGKGLEWVSFISSSGTYIDYADSVKGRFTISRDNVNNSLYLQMNNLRAGDTAVYYCARGMGIAVRRFDYWGQGTLVSVSS
VL: SYVLTQPPSVSVAPGQTAKITCGGNNIGSESVHWYQQKPGQAPVLVVYDDAVRPSGIPERFSGSNSRNTATLTISRVEAGDEAAYYCQVWDSSTVASFGGGTKLTVL
B5: mAb1512 (antibody, V domains shown)
VH: KVQLVQSGGGVVQPGRSQRLSCAASGLTLSEYAMHWVRQAPGKGLEWVAVILSDGTKKEYADSVKGRFTISRDNSKNTLYLQMNSLRAEDTAVYYCATDDNILGHCRSKSCQRNYYHGMDVWGQGTTVSVSS
VL: DIVMTQSPLSLPVTPGEPASISCRSSQSLLHSNGKNYLDWYLQKPGQSPQLLIYLGSDRASGVPDRFSGSGSGTDFTLSISRVEAEDVGVYYCMQALQTPFTFGPGTKVDIK

The binders below were run against reference 3D7 ctCSP peptide (P. falciparum 3D7) (assay: SPR).
Work on B1 yielded a Kd of 0.00377 nM. B2 was tested, and the Kd was 0.00278 nM. B3 was tested, and the Kd was 0.36 nM. Work on B4 yielded a Kd of 0.0116 nM. Work on B5 yielded a Kd of 0.0291 nM.
